This note sets out measurements from doi:10.1101/2020.01.19.911149 (bioRxiv, 2020).

The data set concerns the molecule itself. The data set is described as follows: SEC-MALS. For orientation: Size exclusion chromatography separates by hydrodynamic size, large species first.

B1: SmF-GFP (natural protein, S. cerevisiae, UniProt P54999 1-86, looked up)
chain: MSESSDISAMQPVNPKPFLKGLVNHRVGVKLKFNSTEYRGTLVSTDNYFNLQLNEAEEFVAGVSHGTLGEIFIRCNNVLYIRELPN
For orientation: stoichiometry N means a count of units in the complex or per binding partner. Regarding B1, the “stoichiometry N” value was 14.

B2: BsHfq-GFP (natural protein, Bacillus subtilis, UniProt O31796 1-73, looked up)
chain: MKPINIQDQFLNQIRKENTYVTVFLLNGFQLRGQVKGFDNFTVLLESEGKQQLIYKHAISTFAPQKNVQLELE
In the case of B2, the “stoichiometry N” value stood at 6.
